Experimental data from US20230399388A1 (Sanofi, published 2023).
Changes are numbered by the printed parent chain. Primed or numbered codes have the meaning given here. Ends that are not written are not given here. Biotin′ = not defined here

T1: kallidin
T1 peptide: KRPPGFSPFR

T2: KRPPGFSPFR-biotin
T2 construct: also called KD-b; KD-biotin
T2 peptide: KRPPGFSPFR-biotin

T3: RRPPGFSPFR-biotin (mouse)
T3 construct: also called KLP-b; KLP-biotin
T3 peptide: RRPPGFSPFR-biotin

T4: RRPPGFSPF-biotin (mouse)
T4 construct: also called DAKLP-b; DAKLP-biotin
T4 peptide: RRPPGFSPF-{Biotin′}

T5: desArg10kallidin like peptide (mouse)
T5 peptide: RRPPGFSPF

B1: C63 (antibody, V domains shown)
VH: EVKLEESGGGLVQPGGSMKLSCVASGFTFSNYWMNWVRQSPEKGLEWVAEIRSKSNNYATHYAESVKGRFTISRDDSKSSVYLQMNNLRAEDTGIYYCIGEDYGGDYWGQGTSVTVSS
VL: DIVMSQSPSSLAVSVGEKVTMSCKSSQSLLYSSDQRNYLAWYQQRSGQSPKLLIYWASTRESGVPDRFTGSGSGTDFTLTISSVKAEDLAVYYCQQYYSYPYTFGGGTKLEIK
notes: Murine hybridoma antibody; Family 2
B2: I22 (antibody, V domains shown)
VH: EVQLQQSGAELVRSGASVKLSCTASGFNIKDYYMHWVKQRPEQGLEWIGWVDPENGDSDYAPKFQGKATMTADTSSNTVYLQFSSLTSEDTAVYYCNAFEYDGNYSPLDFWGQGTSVTVSS
VL: DIVMTQSPSSLSVSAGEKVTMSCKSSQSLLNSGNQKNYLAWYQQKPGQPPKLLIYGASTRESGVPDRFTGSGSGTDFTLTISSVQAEDLAVYYCQNDHSYPLTFGAGTKLELK
notes: Murine hybridoma antibody; Family 1
B3: I54 (antibody, V domains shown)
VH: B2 VH
VL: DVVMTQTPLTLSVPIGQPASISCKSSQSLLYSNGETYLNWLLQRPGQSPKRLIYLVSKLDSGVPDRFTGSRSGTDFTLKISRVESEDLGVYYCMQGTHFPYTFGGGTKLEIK
notes: Murine hybridoma antibody; Family 1; also called 154
B4: humanized F151 variant HC3a/LC3a (antibody, human IgG1, V domains shown)
VH: QIQLVQSGAEVKKPGASVKVSCKASGYSFTDYNIYWVRQAPGQGLEWIGYFDPYNGNTGYNQKFRGRATLTVDKSTSTAYMELRSLRSDDTAVYYCANYYRYDDHAMDYWGQGTLVTVSS
VL: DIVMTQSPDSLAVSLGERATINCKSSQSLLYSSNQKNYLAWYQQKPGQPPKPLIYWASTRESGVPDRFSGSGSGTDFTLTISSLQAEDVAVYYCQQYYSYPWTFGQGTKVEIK
notes: also called hF151
B5: humanized F151 variant HC3b/LC3b (antibody, human IgG1, V domains shown)
VH: B4 VH with I2V, I48M, A68V, L70M, V72T, K74T
VL: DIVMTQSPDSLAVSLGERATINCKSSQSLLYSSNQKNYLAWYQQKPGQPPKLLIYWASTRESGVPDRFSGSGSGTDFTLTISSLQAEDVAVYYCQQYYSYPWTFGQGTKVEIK
notes: also called LC3bxHC3b
B6: humanized F151 variant HC2a/LC2a (antibody, human IgG1, V domains shown)
VH: QIQLVQSGAEVKKPGASVKVSCKASGYSFTDYNIYWVKQSPGKGLEWIGYFDPYNGNTGYNQKFRGKATLTVDKSSSTAYMHLSSLTSEESAVYYCANYYRYDDHAMDYWGQGTSVTVSS
VL: DIVMTQSPSSLSASVGDRVTISCKSSQSLLYSSNQKNYLAWYQQKPGKSPKPLIYWASTRESGVPDRFSGSGSGTDFTLTISSVQAEDLATYYCQQYYSYPWTFGGGTKLEIK
notes: also called LC2axHC2a
B7: humanized F151 variant HC1/LC1 (antibody, V domains shown)
VH: B6 VH with Q1E, A9P, G44S, Y80F, E90D
VL: B6 VL with T5S, S12A, I21M, S69T, T91I
notes: also called LC1xHC1
B8: humanized F151 variant HC2c/LC2b (antibody, human IgG1, V domains shown)
VH: B6 VH with L86K
VL: B6 VL with L89K
notes: also called LC2bxHC2c
B9: humanized F151 variant HC2b/LC2a (antibody, human IgG1, V domains shown)
VH: B6 VH with Q62E
VL: B6 VL
notes: also called LC2axHC2b

Target: T1, kallidin
Assay: cell-based or functional assay

First: B1
Second: B2
The “Mean Molar Ratio, ligand depletion, calcium mobilization in MRC5 cells” value of the first is higher: 0.23 molar ratio for the first, 0.22 molar ratio for the second.

In the case of B3, the “Mean Molar Ratio, ligand depletion, calcium mobilization in MRC5 cells” value is reported as 0.3 molar ratio.

Target: T2, KRPPGFSPFR-biotin
Assay: Biacore, biotin-peptide on SA chip;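 for kon: purified antibodies injected as twofold dilutions from 0.1 to 10 nM in HBS-EP over streptavidin-captured biotinylated BKR1 or BKR2 ligand peptides, with a random-peptide flow cell as reference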
Excerpt: (§1) For antibody binding kinetics, the instruments used were the BIACORE 2000 or BIACORE 3000 (GE Healthcare), designed for biomolecular interaction analysis (BIA) in real time. The sensor chip used was SA chip (GE Healthcare) with streptavidin covalently immobilized on a carboxymethylated dextran matrix. Each sensor chip has four parallel flow cells (Fc). Every biotinylated BKR1 or BKR2 ligand peptides were immobilized to one of the flow cells 2 to 4 (Fc2 to Fc4) in the SA chip for binding dissociation rate screening and selectivity screening. Flow cell 1 (Fc1) was reserved and immobilized with a random peptide (biotinylated at one terminus) with equal or close peptide length in comparison to the testing ligand peptides as the negative control. In screening assays, cell culture supernatants of the hybridoma clones selected through primary screening of transiently expressed humanized variants were injected over immobilized peptides. Hybridoma cell culture media was also injected over the chip surface as blank to establish a baseline. After subtracting signals of Fc1 and blank buffer runs, the dissociation rate of the antibodies from the supernatants to each peptide was analyzed and ranked using BIAevaluation software. […] In kinetics analysis, the corresponding biotin-peptides identified in screening for the testing antibody were immobilized in Fc2 to Fc4 while Fc1 with a random peptide used as reference cell. Each purified antibody selected from screenings were made into a series of two fold dilutions in running buffer (1×HBS-EP buffer, GE Healthcare) between 0.1 to 10 nM. Binding association rate, dissociation rate and the overall affinity were calculated in BIAevaluation.

First: B4
Second: B5
The Kd of the first is 2.1-fold lower: 6.78 pM for the first, 14.4 pM for the second. The first binds more tightly here.

First: B6
Second: B7
The Kd of the first is 22-fold higher: 8.71 pM for the first, 0.394 pM for the second. The second binds more tightly here.

Compared with B8, B9 is 3.7-fold lower in Kd: 17.4 pM for the first, 4.72 pM for the second.

B4 and B5 are within 1.5-fold of each other in koff: 2.95e-06 s⁻¹ for the first, 3.02e-06 s⁻¹ for the second.

First: B6
Second: B7
The koff of the first is 35-fold higher: 6.12e-06 s⁻¹ for the first, 1.74e-07 s⁻¹ for the second.

Compared with B8, B9 is 5.5-fold lower in koff: 9.08e-06 s⁻¹ for the first, 1.66e-06 s⁻¹ for the second.

Going from B4 to B5, the kon falls from 427000 M⁻¹ s⁻¹ to 251000 M⁻¹ s⁻¹ (1.7-fold).

Going from B6 to B7, the kon falls from 703000 M⁻¹ s⁻¹ to 424000 M⁻¹ s⁻¹ (1.7-fold).

First: B8
Second: B9
The kon of the first is 1.5-fold higher: 564000 M⁻¹ s⁻¹ for the first, 375000 M⁻¹ s⁻¹ for the second.

Target: T3, RRPPGFSPFR-biotin
Assay: Biacore, biotin-peptide on SA chip;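 for kon: purified antibodies injected as twofold dilutions from 0.1 to 10 nM in HBS-EP over streptavidin-captured biotinylated BKR1 or BKR2 ligand peptides, with a random-peptide flow cell as reference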
Excerpt: as §1

First: B4
Second: B5
The Kd of the first is 500-fold lower: 1.06 pM for the first, 526 pM for the second.

First: B6
Second: B7
The Kd of the first is 7.8-fold higher: 43.4 pM for the first, 5.54 pM for the second. The second binds more tightly here.

Compared with B8, B9 is 3.4-fold lower in Kd: 19.8 pM for the first, 5.76 pM for the second.

Going from B4 to B5, the koff rises from 5.43e-07 s⁻¹ to 0.000272 s⁻¹ (500-fold).

Going from B6 to B7, the koff falls from 2.68e-05 s⁻¹ to 2.67e-06 s⁻¹ (10-fold).

Going from B8 to B9, the koff falls from 1.02e-05 s⁻¹ to 2.2e-06 s⁻¹ (4.6-fold).

B4 and B5 are within 1.5-fold of each other in kon: 502000 M⁻¹ s⁻¹ for the first, 539000 M⁻¹ s⁻¹ for the second.

B6 and B7 are within 1.5-fold of each other in kon: 615000 M⁻¹ s⁻¹ for the first, 481000 M⁻¹ s⁻¹ for the second.

B8 and B9 are within 1.5-fold of each other in kon: 516000 M⁻¹ s⁻¹ for the first, 401000 M⁻¹ s⁻¹ for the second.

Target: T4, RRPPGFSPF-biotin
Assay: Biacore, biotin-peptide on SA chip;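 for kon: purified antibodies injected as twofold dilutions from 0.1 to 10 nM in HBS-EP over streptavidin-captured biotinylated BKR1 or BKR2 ligand peptides, with a random-peptide flow cell as reference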
Excerpt: as §1

Compared with B4, B5 is 1300-fold higher in Kd: 30.5 pM for the first, 40500 pM for the second.

B6 and B7 are within 1.5-fold of each other in Kd: 13.8 pM for the first, 16 pM for the second.

Going from B8 to B9, the Kd rises from 12.1 pM to 29.7 pM (2.5-fold).

Going from B4 to B5, the koff rises from 1.42e-05 s⁻¹ to 0.00276 s⁻¹ (190-fold).

B6 and B7 are within 1.5-fold of each other in koff: 5.67e-06 s⁻¹ for the first, 7.96e-06 s⁻¹ for the second.

B8 and B9 are within 1.5-fold of each other in koff: 1.1e-05 s⁻¹ for the first, 1.3e-05 s⁻¹ for the second.

Compared with B4, B5 is 6.6-fold lower in kon: 465000 M⁻¹ s⁻¹ for the first, 70400 M⁻¹ s⁻¹ for the second.

B6 and B7 are within 1.5-fold of each other in kon: 410000 M⁻¹ s⁻¹ for the first, 500000 M⁻¹ s⁻¹ for the second.

Going from B8 to B9, the kon falls from 903000 M⁻¹ s⁻¹ to 446000 M⁻¹ s⁻¹ (2-fold).

Target: T6, …-biotin (C-terminal biotin)
T6 construct: also called DAKD-b; DAKD-biotin
Assay: Biacore, biotin-peptide on SA chip;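 for kon: purified antibodies injected as twofold dilutions from 0.1 to 10 nM in HBS-EP over streptavidin-captured biotinylated BKR1 or BKR2 ligand peptides, with a random-peptide flow cell as reference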
Excerpt: as §1

Going from B4 to B5, the Kd rises from 25.3 pM to 135 pM (5.3-fold). The first binds more tightly here.

B6 and B7 are within 1.5-fold of each other in Kd: 18.3 pM for the first, 14.5 pM for the second.

First: B8
Second: B9
The Kd of the first is 3.5-fold higher: 90.1 pM for the first, 25.7 pM for the second. The second binds more tightly here.

First: B4
Second: B5
The koff of the first is 4-fold lower: 1.28e-05 s⁻¹ for the first, 5.15e-05 s⁻¹ for the second.

Compared with B6, B7 is 2-fold lower in koff: 1.22e-05 s⁻¹ for the first, 6e-06 s⁻¹ for the second.

First: B8
Second: B9
The koff of the first is 4.1-fold higher: 4.34e-05 s⁻¹ for the first, 1.05e-05 s⁻¹ for the second.

B4 and B5 are within 1.5-fold of each other in kon: 506000 M⁻¹ s⁻¹ for the first, 385000 M⁻¹ s⁻¹ for the second.

Compared with B6, B7 is 1.6-fold lower in kon: 666000 M⁻¹ s⁻¹ for the first, 416000 M⁻¹ s⁻¹ for the second.

B8 and B9 are within 1.5-fold of each other in kon: 481000 M⁻¹ s⁻¹ for the first, 417000 M⁻¹ s⁻¹ for the second.

Target: desArg10kallidin
Assay: cell-based or functional assay

B2 and B3 are within 1.5-fold of each other in “FLIPR (nM), DAKD (50 nM)” value: 9.4 nM for the first, 8.1 nM for the second.

Target: T1, kallidin
Assay: cell-based or functional assay
Remark: another data set of the same source

B2 and B3 are within 1.5-fold of each other in “FLIPR (nM), KD (15 nM)” value: 25 nM for the first, 30 nM for the second.

Target: T2, KRPPGFSPFR-biotin
Assay: Biacore, biotin-peptide on SA chip
Remark: another data set of the same source
Excerpt: as §1

Compared with B1, B2 is 50-fold lower in Kd: 221 pM for the first, 4.4 pM for the second. The second binds more tightly here.

For B3, the Kd was 11.2 pM.

First: B1
Second: B2
The koff of the first is 4.8-fold higher: 0.0001 s⁻¹ for the first, 2.1e-05 s⁻¹ for the second.

Binder B3 has a koff of 3.88e-05 s⁻¹.

Target: T3, RRPPGFSPFR-biotin
Assay: Biacore, biotin-peptide on SA chip
Remark: another data set of the same source
Excerpt: as §1

B1: no binding.

Going from B2 to B3, the Kd rises from 1.82 pM to 9.56 pM (5.3-fold). The first binds more tightly here.

First: B2
Second: B3
The koff of the first is 5.9-fold lower: 1.03e-05 s⁻¹ for the first, 6.04e-05 s⁻¹ for the second.

Target: T4, RRPPGFSPF-biotin
Assay: Biacore, biotin-peptide on SA chip
Remark: another data set of the same source
Excerpt: as §1

B1: no binding.

Going from B2 to B3, the Kd rises from ≤ 1.83 pM to 11.7 pM.

Going from B2 to B3, the koff rises from ≤ 1e-06 s⁻¹ to 5.66e-05 s⁻¹.

Target: T6, …-biotin
Assay: Biacore, biotin-peptide on SA chip
Remark: another data set of the same source
Excerpt: as §1

Going from B1 to B2, the Kd rises from 142 pM to 217 pM (1.5-fold).

Binder B3 has a Kd of 9.53 pM.

Going from B1 to B2, the koff rises from 9.36e-05 s⁻¹ to 0.000319 s⁻¹ (3.4-fold).

Work on B3 yielded a koff of 3.06e-05 s⁻¹.

Target: T7, biotin-… (N-terminal biotin)
T7 construct: also called b-BK
Assay: ELISA, biotin-peptide on streptavidin plate

B1: no binding.

Target: T8, …-biotin (C-terminal biotin)
T8 construct: also called BK-b
Assay: ELISA, biotin-peptide on streptavidin plate

B1: no binding.

Target: T9, biotin-RPPGFSPF (N-terminal biotin)
T9 construct: also called b-DABK; biotin-DABK
Assay: ELISA, biotin-peptide on streptavidin plate

B3: binds.

Target: T10, RPPGFSPF-biotin (C-terminal biotin)
T10 construct: also called DABK-b
Assay: ELISA, biotin-peptide on streptavidin plate

B3: binds.

Target: T2, KRPPGFSPFR-biotin
Assay: Biacore, biotin-peptide on SA chip
Remark: another data set of the same source

B1 was tested, and the Kd was 221 pM.

Target: T6, …-biotin
Assay: Biacore, biotin-peptide on SA chip
Remark: another data set of the same source

B1 showed a Kd of 142 pM.

Target: desArg10kallidin
Assay: cell-based or functional assay
Remark: another data set of the same source

Going from B1 to B2, the “Mean Molar Ratio, ligand depletion, calcium mobilization in HEK mBKR1 cells” value falls from 0.08 molar ratio to 0.07 molar ratio.

For B3, the “Mean Molar Ratio, ligand depletion, calcium mobilization in HEK mBKR1 cells” value was 0.15 molar ratio.

Target: T5, desArg10kallidin like peptide
Assay: cell-based or functional assay

First: B1
Second: B2
The “Mean Molar Ratio, ligand depletion, calcium mobilization in HEK mBKR1 cells” value of the first is higher: 5.85 molar ratio for the first, 0.21 molar ratio for the second.

For B3, the “Mean Molar Ratio, ligand depletion, calcium mobilization in HEK mBKR1 cells” value was 0.35 molar ratio.
